The text below walks through data of patent US20030211537A1.

Test [1] has as its target H278N mutant mouse delta opioid receptor (mouse) (UniProt P32300). The test can be described thus: competition vs 3H-naltrindole, COS-7 membranes.
The target of test [2] is rat µ opioid receptor (rat) (UniProt P33535). The test can be described thus: competition vs [3H]DAMGO, COS-7 membranes.
For test [3], the target named is mouse kappa opioid receptor (mORK1) (mouse) (UniProt P33534). The test can be described thus: competition vs [3H]U-69,593, COS-1 membranes.

The term Ki denotes the equilibrium dissociation constant of an inhibitor or competing ligand from its target. High values mean lower affinity, low ones higher affinity. In the case of D-Ala2-deltorphin II (peptide), the inhibitory constant (Ki) in test [1] was 4 nM.
On to PLO17 (peptide), for which the Ki in test [2] came out at 30 nM.
A word on the IC50: it is the midpoint of a concentration-inhibition curve. Consider “[D-Ala2, F5Phe4]Dynorphin (1-13)NH2 (from UniProt P01213 207-219) (peptide)”, for which the IC50 in test [3] turned out to be 19 nM.
For the substance “[D-Ala2, F5Phe4]Dynorphin (1-17)NH2 (from UniProt P01213 207-223) (peptide)”, in test [3], the IC50 stood at 0.2 nM.
For the substance dermorphin (peptide), the Ki in test [2] came to 0.33 nM.
Take morphiceptin (peptide): in test [2], the Ki turned out to be 56 nM.
